Laboratory results from the nanobody polyreactivity screen of Harvey et al. (2022).

Experiment: yeast display, Sf9 membrane polyspecificity reagent, FACS + sequencing; frameworks hold sequencing errors
Method in brief: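 Galactose-induced (36–48 hours) yeast carrying a synthetic nanobody display library were exposed to 10% biotinylated, detergent-solubilized Sf9 membrane reagent at 4 °C for 1 hour. FACS followed streptavidin microbead enrichment, using low and high (top ~1%) gates for expression (anti-HA) and reagent binding (streptavidin). Colony PCR, MiSeq 2 × 250 sequencing and CDR-length filtering followed. Labels for polyreactivity reflect the gate of origin.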

Row | Sequence | polyreactivity (PSR sort gate)
1 | QVQLVESGGGLVQAGGSLRLSCAASGSTFYWYALGWYRQAPGKERELVASITWIGGSNTYYADSVKGRFTISRDNAKNTVYLQMNSLKPEDTAVYYCAADPGVYGQYLYSPWGYDYWGQGTQVTVSS | high polyreactivity
2 | QVQLVESGGGLVQAGGSLRLSCAASGSTFYWYAMGWYRQAPGKEREFVAAISLGSGSTYYADSVKGRFTISRDNAKNTVYLQMNSLKPEDTAVYYCARRYPYPAYEYGYWGQGTQVTVSS | high polyreactivity
3 | QVQLVESGGGLVQAGGSLRLSCAASGSTFYWYAMGWYRQATGKERELVAVITVRGGSTYYADSVKGRFTISRDNAKYTVYLQMNSLKPEDTAVYYCAAEQTSSLYKYWYDYWGQGTQVTVSS | low polyreactivity
4 | QVQLVESGGGLVQAGGSLRLSCAASGSTFYYNAMGWYRQAPGKERELVAAINRGGITYYADSVKGRFTISRDNAKNTVYLQMNSLKPEDTAVYYCAASRYPRSYVSYYYWGQGTQVTVSS | high polyreactivity
5 | QVQLVESGGGLVQAGGSLRLSCAASGSTFYYNAMGWYRQAPGKERELVAAISGSGGSTYYADSVKGRFTISRDNAKNTVYLQMNSLKPEDTAVDYCAALYGPGREYDYWGQGTQVTVSS | low polyreactivity
6 | QVQLVESGGGLVQAGGSLRLSCAASGSTFYYNAMGWYRQAPGKERELVAAITSSGGRTYYADSVKGRFTISRDNAKNTVYLQMNSLKPEDTAVYYCAKREASSRWPYDYWGQGTQVTVSS | low polyreactivity
7 | QVQLVESGGGLVQAGGSLRLSCAASGSTFYYNAMGWYRQAPGKERELVAAITSSGGRTYYADSVKGRFTISRDNAMNTVYLQMNSLKPEDTAFYYCAKREASSRWPYDYWGQGTQVTVSS | low polyreactivity
8 | QVQLVESGGGLVQAGGSLRLSCAASGSTFYYNAMGWYRQAPGKERELVAVITLNGGRTSYADSVKGRFTISRDNAKITVYLQMNSLKPEDTAVYYCAADRYRGYGYWGQGTQVTVSS | low polyreactivity
9 | QVQLVESGGGLVQAGGSLRLSCAASGSTFYYNAMGWYRQAPGQERELVAAITSGGGTNYADSVKGRFTISRDNAKNTVYLQLNSLKPEDTAVYYCAADIYPLAIGAFRDDYWGQRTQVTVSS | low polyreactivity
10 | QVQLVESGGGLVQAGGSLRLSCAASGSTFYYYAIGWYRQAPGKERELVAALSKSGGSTYYADSVKGRFTISRDNAKNTVYLQMNSLNTEDTAVYYCSARWYRFQGYGRPYRGIGGDYWGQGTQVTVSS | high polyreactivity
11 | QVQLVESGGGLVQAGGSLRLSCAASGSTFYYYALGWYRQAPGKERELVATISWSGDSTYADSVKGRFTISRDNAKNTVYLQMNSLKPEDTAVYYCATSGDWWGFRYDYWGQGTQVTVSS | low polyreactivity
12 | QVQLVESGGGLVQAGGSLRLSCAASGSTFYYYAMGWYRPAPGKERELVAAISSRGGSTFYADSVKGRFTISRDNAKNTVYLQMNSLKPEDTAVYYCNAYRYDRSQYYPYDYWGQGTQVTVSS | high polyreactivity
13 | QVQLVESGGGLVQAGGSLRLSCAASGSTFYYYAMGWYRQAPGKEREFVAAISWGGGSTRYADSVKGRFTISRDNAKNTVYLQMNSLKPEDTAVYYCAARYPHYDYYYWGQGTQVTVSS | high polyreactivity
14 | QVQLVESGGGLVQAGGSLRLSCAASGSTFYYYAMGWYRQAPGKERELVAAIDTSVDSTYYADSVKGRFTISRDNAKNTVYLQMNSLKPEDTAVYYCNARSRTGYTNRMYYWGQGTQVTVSS | high polyreactivity
15 | QVQLVESGGGLVQAGGSLRLSCAASGSTFYYYAMGWYRQAPGKERELVAAISISDNSTYYADSVKGRFTISRDNAKNTVYLQMNSLKPEDTAVYYCAAYGWYAHDDSTYDYWGQGTQVTVSS | low polyreactivity
16 | QVQLVESGGGLVQAGGSLRLSCAASGSTFYYYAMGWYRQAPGKERELVAAISSGGSTYADSVKGRFTISRDNAKNTVYLQMNSLKPEDTAVYWGQGTQVTVSS | low polyreactivity
17 | QVQLVESGGGLVQAGGSLRLSCAASGSTFYYYAMGWYRQAPGKERELVAAITYRGGSTYYADSVKGLFTISRDNAKNTVYLQMNSLKPEDTAVYYCSKVGYKTSSIRYGYWGQGTQVTVSS | high polyreactivity
18 | QVQLVESGGGLVQAGGSLRLSCAASGSTFYYYAMGWYRQAPGKERELVAVISWGGGSTYYADSVKGRFTISRDNAKNTVYLQMNSLKPEDTAVYYCAAVYDEYQTSHEYDYWGQGTQVTVSS | low polyreactivity
19 | QVQLVESGGGLVQAGGSLRLSCAASGSTFYYYTMGWYRQAPGKERELVAAISSSGGSTYYADSVKGRFTISRDNAKNTVYLQMNSLKPEDTAVYYCNAARKGYRVYTLIDRHKYDYWGQGTQVTVSS | high polyreactivity
20 | QVQLVESGGGLVQAGGSLRLSCAASGSTFYYYTMGWYRQAPGKERELVASISGNVGSTSYADSVKGRFTISRDNAKNTVYLQMNSLKPEDTAVYYCNTDWGYYHSPDSDYWGQGTQVTVSS | low polyreactivity
21 | QVQLVESGGGLVQAGGSLRLSCAASGSTFYYYVMGWYRQAPGKERELVAAISSGGHTNYADSVKGRFTISRDNAKNTVYLQMNILKPEDTAVYYCAAKPWRGTLLRYGYWGQGTQVTVSS | high polyreactivity
22 | QVQLVESGGGLVQAGGSLRLSCAASGSTGVNTMGWYRQAPGKERQLVAAIRATGGSTYYADSVKGRFTISRENAKNTVYFQMNSLKPEDTAVYYCNAYRRSYRWYGDLGEYWGQGTQVTVSS | high polyreactivity

Row | Sequence | polyreactivity (PSR sort gate)
23 | QVQLVESGGGLVQAGGSLRLSCAASGSTIAYYAMGWDRQAPGKERELVAVINGITGSTYYADSVKGRFTISRDNEKNTVYLQMNSLKPEDTAVYYCNADYADVTDEGDYWGQGTQVTVSS | low polyreactivity
24 | QVQLVESGGGLVQAGGSLRLSCAASGSTIDIYAMGWYRQAPGKERELVAAISNSGDTYYADSVKGRFTISRDNAKNTVYLQMNSLKPEDTAVYYCAAPAAGDEYDYWGQGTQVTVSS | high polyreactivity
25 | QVQLVESGGGLVQAGGSLRLSCAASGSTIDTNAMGWYRQAPGTDRELVAAITSGGNTYADSVKGRFTISRDNAKNTVYLQMNSLKPEDTAVYYCAAEDVYTGWYDYCGQGTQVTVSS | low polyreactivity
26 | QVQLVESGGGLVQAGGSLRLSCAASGSTIDWYGMGWYRQAPGKERELVAAINFSDGSTYYADSVKGRFTISRDNAKNTVYLQMNSLKPEDTAVYYCAAFTPSYGGRDYWGQGTQVTVSS | low polyreactivity
27 | QVQLVESGGGLVQAGGSLRLSCAASGSTIDYYTMGWYRQEPGKERELVAAISWSGGNTYYADSVKGRFTISRDNAKNTVYLQMNSLKPEDTAVYYCNRVNAYWLRYDYWGQGTQVSVSS | high polyreactivity
28 | QVQLVESGGGLVQAGGSLRLSCAASGSTIEFNAMGWYRPAPGKERELVAAISGSGASTYYADSVKGRFTISRDNAKNTVYLQMNSLTPEVTAVYYCNADSLYYDYQTVDVQALDYWGQATQVTVSS | low polyreactivity
29 | QVQLVESGGGLVQAGGSLRLSCAASGSTIEPNAMGWYRPAPGKERELVAAINYSGGRTYYADSVKGRFTISRDNAKNTVYLQMNSLKPEDTAVYYCAATSIGRYKSRLDYWGQGTQVTVSS | high polyreactivity
30 | QVQLVESGGGLVQAGGSLRLSCAASGSTIGDNAMGWYRQAPGKERELVASITGGGGSTYYADSVKGRFTISRDNAKNTVYLQMNSLKPEDTAVYYCAAVYQSYTYYLPKYWSFYQNDYWGQGTQVTVSS | low polyreactivity
31 | QVQLVESGGGLVQAGGSLRLSCAASGSTIGFYAMGWYRQAPGKERELVAVISSSSSTNYADSVKGRFTISRDNAKNTVYLQMNSLKPKIPAVYYCNAKWTTLFDYWGQGTQVTVSS | high polyreactivity
32 | QVQLVESGGGLVQAGGSLRLSCAASGSTIGLNAMGWYIQEPGKEREFVAAISVSSGNKYYADSVKGRFTISRDNAKNTVYLQMNSLKPEDTAVYYCAARPRSHYIAQYYYWGQGTHVTVSS | low polyreactivity
33 | QVQLVESGGGLVQAGGSLRLSCAASGSTIGPNAMGSYRQAPGKERELVAAIRSNGGRTYYADSVKGRFTISRDNAKNTVYLQMNSLKPEDTAVYYCAAPHYPYDTPYGYWGQGTQVTVSS | low polyreactivity
34 | QVQLVESGGGLVQAGGSLRLSCAASGSTIGVYAMGWYRQAPGKERELVAAITSGDSTNYADSVKGRFTISRDNAKNTVYLQMYSLKPEDTAVYYCNARQLYYWYYAYDYWGQGTQVTVST | low polyreactivity
35 | QVQLVESGGGLVQAGGSLRLSCAASGSTIIGYTMGWYRQAPGKERELVADISNGGSTNYADSVKGRFTISRDNAKNTVYLQLNSLKPEDTAVYYCNAEAWYYWGWPFFIATYDYWGQGTQVTVSS | low polyreactivity
36 | QVQLVESGGGLVQAGGSLRLSCAASGSTIKPYTMGWYRPAPGKERELVAAITSGGRTYYADSVKGRFTISRDNAKNTVYLQMNSLKPEDTAVYYCNARRYLWLRRYDYWGQGTQVTVSS | high polyreactivity
37 | QVQLVESGGGLVQAGGSLRLSCAASGSTIKYYAMGWYRQAPGKERELVAAINWSGDSTYYADSVKGRFTISRDNAKNTVYLQMNSLKPEDTAVYYCAVRYQKRAYYGSNYWGQGTQVTVSS | high polyreactivity
38 | QVQLVESGGGLVQAGGSLRLSCAASGSTILKYAMGWYRQAPGKERELVAAITSDGTSYADSVKGRFTISRDNAKNTVYLQMNSLKPEDTAVYYCAIDYRHPTFDYWGQGTQVTVSS | low polyreactivity
39 | QVQLVESGGGLVQAGGSLRLSCAASGSTILYYAMGWYRPAPGKERELVAAITWSGGPTYYADSVKGRFTISRDNAKMSGYLLMTSLKPEDTAVYYCNKADPWLRSTALNPGLYDYWGQGTQVTVSS | high polyreactivity
40 | QVQLVESGGGLVQAGGSLRLSCAASGSTINHYAMGWYRQAPGKERELVAAISWSGGSTRYADSVKGRFTISRDNAKNTVYLQMNSLKPEDTAVYYCAARGYGKYYYWGQGTQVTVSS | high polyreactivity
41 | QVQLVESGGGLVQAGGSLRLSCAASGSTINQYPLGWYRQATGKERELVAAITRRGGSTYYADSVKGRFTISRDNAKNTVYLQMNSLKPEDTAVYYCAAAYPYTTVSYDYWGQGTQVTVSS | high polyreactivity
42 | QVQLVESGGGLVQAGGSLRLSCAASGSTINSYTKGWYSQAPRKERELVAAISGSSGRTYDADSVKGRFTISRDNAKNTVYLQMNSLKPEDTAVYYGAAVDLYGGSDYWGQGTQVTVSS | high polyreactivity
43 | QVQLVESGGGLVQAGGSLRLSCAASGSTIPLYAMGWYRQAPGKERELVAAISRRGGRTYYADSVKGRFTISRDYAKNTVYLQMNSLKQEDTAVYYCATAQGSRVDYWGQGTQVTVSS | high polyreactivity
